Test results from IntAct's records for PubMed 19490898.

B1: Ras-related protein Rab-9A (Canis familiaris (dog)), P24408 (parent)
chain: MAGKSSLFKVILLGDGGVGKSSLMNRYVTNKFDTQLFHTIGVEFLNKDLEVDGHFVTMQIWDTAGQERFRSLRTPFYRGSDCCLLTFSVDDSQSFQNLSNWKKEFIYYADVKEPESFPFVILGNKIDISERQVSTEEAQAWCRDNGDYPYFETSAKDATNVAAAFEEAVRRVLATEDRSDHLIQTDTVSLHRKPKPSSSCC

Variants of: B1
Details: with rhbt3_human RHOBTB3, O94955
Chain of rhbt3_human RHOBTB3, O94955 (O94955 whole entry): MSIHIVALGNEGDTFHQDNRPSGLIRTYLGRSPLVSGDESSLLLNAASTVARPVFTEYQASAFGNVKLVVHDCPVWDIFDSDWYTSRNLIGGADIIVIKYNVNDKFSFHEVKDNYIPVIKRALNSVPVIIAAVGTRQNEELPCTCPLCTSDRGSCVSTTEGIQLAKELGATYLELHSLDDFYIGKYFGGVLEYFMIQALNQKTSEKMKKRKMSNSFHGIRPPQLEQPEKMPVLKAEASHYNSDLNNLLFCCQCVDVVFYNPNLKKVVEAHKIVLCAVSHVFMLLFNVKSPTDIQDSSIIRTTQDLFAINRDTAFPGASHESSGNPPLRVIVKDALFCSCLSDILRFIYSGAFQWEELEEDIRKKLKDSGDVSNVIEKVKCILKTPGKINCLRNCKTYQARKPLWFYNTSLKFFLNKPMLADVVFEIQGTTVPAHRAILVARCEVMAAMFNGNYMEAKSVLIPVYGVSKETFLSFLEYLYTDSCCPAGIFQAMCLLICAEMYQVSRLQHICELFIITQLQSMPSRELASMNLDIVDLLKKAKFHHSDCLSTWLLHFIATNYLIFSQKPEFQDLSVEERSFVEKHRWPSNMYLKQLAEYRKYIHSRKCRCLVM

With MAGKSSLFKVILLGDGGVGKNSLMNRYVTNKFDTQLFHTIGVEFLNKDLEVDGHFVTMQIWDTAGQERFRSLRTPFYRGSDCCLLTFSVDDSQSFQNLSNWKKEFIYYADVKEPESFPFVILGNKIDISERQVSTEEAQAWCRDNGDYPYFETSAKDATNVAAAFEEAVRRVLATEDRSDHLIQTDTVSLHRKPKPSSSCC [S21N] as the variant, how does the “effect of a mutation on the interaction” value read?
Its value is “decreasing interaction”.
